{
  "source": "paper PMC9646525",
  "about": "“Cryo-EM structure of the SEA complex” (Nature, 2022)",
  "binders": {"B1": {"name": "Seh1 (natural protein, UniProt P53011 1-349, looked up)", "chain": "MQPFDSGHDDLVHDVVYDFYGRHVATCSSDQHIKVFKLDKDTSNWELSDSWRAHDSSIVAIDWASPEYGRIIASASYDKTVKLWEEDPDQEECSGRRWNKLCTLNDSKGSLYSVKFAPAHLGLKLACLGNDGILRLYDALEPSDLRSWTLTSEMKVLSIPPANHLQSDFCLSWCPSRFSPEKLAVSALEQAIIYQRGKDGKLHVAAKLPGHKSLIRSISWAPSIGRWYQLIATGCKDGRIRIFKITEKLSPLASEESLTNSNMFDNSADVDMDAQGRSDSNTEEKAELQSNLQVELLSEHDDHNGEVWSVSWNLTGTILSSAGDDGKVRLWKATYSNEFKCMSVITAQQ", "notes": "Seh1, S. cerevisiae, endogenous subunit of the SEAC (SEACAT, core); Native protein of the purified complex; six copies in the SEAC; source: endogenous, yeast cells expressing Sea4-TAP; in lysate and co-purified with Sea4-TAP (IgG Dynabeads, TEV elution)"}},
  "key": {"Sea2": {"target": "T1, Sea2 (S. cerevisiae (endogenous in yeast …, UniProt Q08281 1-1341))", "T1 construct": "Sea2, S. cerevisiae, endogenous subunit of the SEAC (SEACAT, core); Native protein of the purified complex; two copies in the SEAC; source: endogenous, yeast cells expressing Sea4-TAP; in lysate and co-purified with Sea4-TAP (IgG Dynabeads, TEV elution)", "T1 sequence (looked up)": "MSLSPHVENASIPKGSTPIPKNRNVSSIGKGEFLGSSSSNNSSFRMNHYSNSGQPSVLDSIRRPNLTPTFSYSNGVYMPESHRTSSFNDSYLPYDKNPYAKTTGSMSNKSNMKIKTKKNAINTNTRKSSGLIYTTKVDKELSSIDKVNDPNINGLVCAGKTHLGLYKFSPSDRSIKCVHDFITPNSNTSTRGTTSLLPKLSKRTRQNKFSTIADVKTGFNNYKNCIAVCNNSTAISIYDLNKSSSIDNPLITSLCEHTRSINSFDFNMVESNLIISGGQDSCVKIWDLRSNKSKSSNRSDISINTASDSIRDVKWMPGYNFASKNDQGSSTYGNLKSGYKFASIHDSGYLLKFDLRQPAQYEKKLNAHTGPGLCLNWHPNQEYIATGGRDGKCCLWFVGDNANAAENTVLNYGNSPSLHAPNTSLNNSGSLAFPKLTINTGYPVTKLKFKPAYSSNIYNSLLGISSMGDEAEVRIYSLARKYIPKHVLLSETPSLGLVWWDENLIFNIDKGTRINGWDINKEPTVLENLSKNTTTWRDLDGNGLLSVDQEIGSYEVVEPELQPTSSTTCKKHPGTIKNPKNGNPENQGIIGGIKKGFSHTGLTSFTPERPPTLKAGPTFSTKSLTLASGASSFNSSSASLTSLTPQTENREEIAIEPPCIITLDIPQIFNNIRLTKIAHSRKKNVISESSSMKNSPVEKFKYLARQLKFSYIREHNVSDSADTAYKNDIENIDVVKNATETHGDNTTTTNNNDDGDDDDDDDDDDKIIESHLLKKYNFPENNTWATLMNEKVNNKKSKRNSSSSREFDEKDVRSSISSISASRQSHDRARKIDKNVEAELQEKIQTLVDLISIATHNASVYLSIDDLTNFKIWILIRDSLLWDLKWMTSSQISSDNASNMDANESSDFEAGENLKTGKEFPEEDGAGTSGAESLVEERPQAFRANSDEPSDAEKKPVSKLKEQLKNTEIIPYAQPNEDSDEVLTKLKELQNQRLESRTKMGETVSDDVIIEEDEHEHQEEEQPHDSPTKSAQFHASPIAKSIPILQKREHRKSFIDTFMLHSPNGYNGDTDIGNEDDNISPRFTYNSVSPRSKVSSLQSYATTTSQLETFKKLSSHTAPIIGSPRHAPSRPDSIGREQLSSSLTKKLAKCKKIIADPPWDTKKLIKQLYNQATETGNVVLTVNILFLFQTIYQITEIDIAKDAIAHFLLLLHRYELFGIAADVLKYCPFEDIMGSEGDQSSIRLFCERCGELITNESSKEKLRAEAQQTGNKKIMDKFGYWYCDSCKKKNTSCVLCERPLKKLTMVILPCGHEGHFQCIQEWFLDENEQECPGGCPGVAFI", "experiment": "cryo-EM structure; endogenous SEAC purified from yeast via Sea4-TAP (IgG Dynabeads, TEV elution in 20 mM HEPES-NaOH pH 7.4, 300 mM NaCl, 2 mM DTT), on graphene-oxide-coated grids", "details": "both partners purified"}, "Sea3": {"target": "T2, Sea3 (S. cerevisiae (endogenous in yeast …, UniProt Q03897 1-1148))", "T2 construct": "Sea3, S. cerevisiae, endogenous subunit of the SEAC; Sea3^SIP (Sea3^Nter) lies in the wing, Sea3^SAP (Sea3^Cter) in the core; Native protein of the purified complex; two copies in the SEAC; source: endogenous, yeast cells expressing Sea4-TAP; in lysate and co-purified with Sea4-TAP (IgG Dynabeads, TEV elution)", "T2 sequence (looked up)": "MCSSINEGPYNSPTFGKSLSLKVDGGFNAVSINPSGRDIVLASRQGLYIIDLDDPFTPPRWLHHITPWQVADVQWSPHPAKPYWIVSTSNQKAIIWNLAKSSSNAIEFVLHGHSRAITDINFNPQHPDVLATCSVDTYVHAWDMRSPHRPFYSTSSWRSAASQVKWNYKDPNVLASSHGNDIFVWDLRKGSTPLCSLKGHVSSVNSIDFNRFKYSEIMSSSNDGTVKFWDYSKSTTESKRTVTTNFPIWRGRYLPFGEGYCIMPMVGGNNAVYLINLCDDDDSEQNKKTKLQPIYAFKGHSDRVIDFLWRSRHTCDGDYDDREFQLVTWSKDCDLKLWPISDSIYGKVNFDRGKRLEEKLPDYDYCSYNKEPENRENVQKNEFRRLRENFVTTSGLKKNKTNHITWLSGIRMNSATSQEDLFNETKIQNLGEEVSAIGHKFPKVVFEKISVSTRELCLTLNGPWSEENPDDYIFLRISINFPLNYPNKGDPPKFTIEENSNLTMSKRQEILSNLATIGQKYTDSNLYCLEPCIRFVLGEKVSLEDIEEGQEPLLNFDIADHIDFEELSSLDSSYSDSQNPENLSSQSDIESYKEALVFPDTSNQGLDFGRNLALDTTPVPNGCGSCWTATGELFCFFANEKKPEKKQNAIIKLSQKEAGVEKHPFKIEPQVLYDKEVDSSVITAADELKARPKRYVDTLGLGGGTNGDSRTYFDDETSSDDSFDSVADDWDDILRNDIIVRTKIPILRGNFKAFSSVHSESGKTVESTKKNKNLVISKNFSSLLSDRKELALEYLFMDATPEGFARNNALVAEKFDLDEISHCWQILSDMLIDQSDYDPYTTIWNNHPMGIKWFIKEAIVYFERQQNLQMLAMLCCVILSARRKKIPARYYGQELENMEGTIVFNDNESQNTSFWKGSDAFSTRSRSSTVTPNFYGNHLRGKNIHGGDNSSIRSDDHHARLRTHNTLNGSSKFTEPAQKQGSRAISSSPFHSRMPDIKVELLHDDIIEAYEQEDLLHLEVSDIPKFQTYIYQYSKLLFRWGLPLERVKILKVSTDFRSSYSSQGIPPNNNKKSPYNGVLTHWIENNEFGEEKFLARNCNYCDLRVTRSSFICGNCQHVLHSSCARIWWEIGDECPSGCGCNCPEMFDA", "experiment": "cryo-EM structure; endogenous SEAC purified from yeast via Sea4-TAP (IgG Dynabeads, TEV elution in 20 mM HEPES-NaOH pH 7.4, 300 mM NaCl, 2 mM DTT), on graphene-oxide-coated grids", "details": "both partners purified"}},
  "data": [
    {"binder": "B1", "values": [
      {"measurement": "binding result", "setting": "Sea2", "result": "binds"},
      {"measurement": "binding result", "setting": "Sea3", "result": "binds"}
    ]}
  ]
}
